Source: paper PMC9352680, “A comprehensive thermodynamic model for RNA binding by the Saccharomyces cerevisiae Pumilio protein PUF4”

Target: T1, PUF4 RNA-binding domain (Saccharomyces cerevisiae, UniProt P25339 537-888)
T1 sequence: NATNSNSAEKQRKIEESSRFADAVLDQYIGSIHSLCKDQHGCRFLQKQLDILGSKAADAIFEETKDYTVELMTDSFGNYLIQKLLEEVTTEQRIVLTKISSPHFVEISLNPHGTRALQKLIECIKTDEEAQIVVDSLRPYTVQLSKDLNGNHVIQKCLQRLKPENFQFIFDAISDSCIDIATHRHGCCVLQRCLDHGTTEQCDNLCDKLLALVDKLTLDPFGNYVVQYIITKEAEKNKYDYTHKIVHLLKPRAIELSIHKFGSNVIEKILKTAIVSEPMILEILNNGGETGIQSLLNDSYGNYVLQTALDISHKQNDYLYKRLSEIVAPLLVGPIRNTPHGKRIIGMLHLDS
Test: Mg; RNA-MaP; 20 mM Na-HEPES pH 7.4, 30 mM KOAc, 0.75 mM MgCl2, 0.1% Tween-20, 5% glycerol, 0.1 mg/mL BSA, 2 mM DTT; 25 C; 0.0125-409.6 nM protein
Settings: tags: N-His6-TEV cleaved; C-SNAP kept, Cy3B-labelled; label: tethered on chip by stalled RNA polymerase

Binder	Kd [nM]
UCUCUUUGUAUGAUCUCUCUU (ssRNA) [Ic_S1_P4E.1_K4.1_C4.1_H4.1_A4.1_[A6G]_[T7A]_F4.1_[A9C]_T4.1]	148
UCUCUUUGUAUGUGGUCUCUU (ssRNA) [Ic_S1_P4E.1_K4.1_C4.1_H4.1_A4.1_[A6G]_F4.1_[T8G]_[A9G]_T4.1]	1000
UCUCUUUGUAUGUGUUCUCUU (ssRNA) [Ic_S1_P4E.1_K4.1_C4.1_H4.1_A4.1_[A6G]_F4.1_[T8G]_[A9T]_T4.1]	92.5
UCUCUUUGUAUGUCCUCUCUU (ssRNA) [Ic_S1_P4E.1_K4.1_C4.1_H4.1_A4.1_[A6G]_F4.1_[T8C]_[A9C]_T4.1]	564
UCUCUUUGUAUGUAGUCUCUU (ssRNA) [Ic_S1_P4E.1_K4.1_C4.1_H4.1_A4.1_[A6G]_F4.1_[T8A]_[A9G]_T4.1]	106
UCUCUUUGUAUGUACUCUCUU (ssRNA) [Ic_S1_P4E.1_K4.1_C4.1_H4.1_A4.1_[A6G]_F4.1_[T8A]_[A9C]_T4.1]	41.5
UCUCUUUGUAUGUAUUCUCUU (ssRNA) [Ic_S1_P4E.1_K4.1_C4.1_H4.1_A4.1_[A6G]_F4.1_[T8A]_[A9T]_T4.1]	71.2
UCUCUUUGUAUCGGCUCUCUU (ssRNA) [Ic_S1_P4E.1_K4.1_C4.1_H4.1_A4.1_[A6C]_[T7G]_F4.1_[T8G]_[A9C]_T4.1]	2020
UCUCUUUGUAUCGAUCUCUU (ssRNA) [Ib_S1_P3E.1_K3.1_C3.1_H3.1_A3.1_[A6C]_F3.1_[T7G]_T3.1]	1020
UCUCUUUGUAUCGGUUCUCUU (ssRNA) [Ic_S1_P4E.1_K4.1_C4.1_H4.1_A4.1_[A6C]_[T7G]_F4.1_[T8G]_[A9T]_T4.1]	938
UCUCUUUGUAUCGCUUCUCUU (ssRNA) [Ic_S1_P4E.1_K4.1_C4.1_H4.1_A4.1_[A6C]_[T7G]_F4.1_[T8C]_[A9T]_T4.1]	682
UCUCUUUGUAUCGACUCUCUU (ssRNA) [Ic_S1_P4E.1_K4.1_C4.1_H4.1_A4.1_[A6C]_[T7G]_F4.1_[T8A]_[A9C]_T4.1]	> 2300
UCUCUUUGUAUCGAUUCUCUU (ssRNA) [Ic_S1_P4E.1_K4.1_C4.1_H4.1_A4.1_[A6C]_[T7G]_F4.1_[T8A]_[A9T]_T4.1]	581
UCUCUUUGUAUCGUGUCUCUU (ssRNA) [Ic_S1_P4E.1_K4.1_C4.1_H4.1_A4.1_[A6C]_[T7G]_F4.1_[A9G]_T4.1]	432
UCUCUUUGUAUCGUUUCUCUU (ssRNA) [Ic_S1_P4E.1_K4.1_C4.1_H4.1_A4.1_[A6C]_[T7G]_F4.1_[A9T]_T4.1]	328
UCUCUUUGUAUCCGUUCUCUU (ssRNA) [Ic_S1_P4E.1_K4.1_C4.1_H4.1_A4.1_[A6C]_[T7C]_F4.1_[T8G]_[A9T]_T4.1]	1300
UCUCUUUGUAUCCCGUCUCUU (ssRNA) [Ic_S1_P4E.1_K4.1_C4.1_H4.1_A4.1_[A6C]_[T7C]_F4.1_[T8C]_[A9G]_T4.1]	> 2300
UCUCUUUGUAUCCCCUCUCUU (ssRNA) [Ic_S1_P4E.1_K4.1_C4.1_H4.1_A4.1_[A6C]_[T7C]_F4.1_[T8C]_[A9C]_T4.1]	1020
UCUCUUUGUAUCCCAUCUCUU (ssRNA) [Ic_S1_P4E.1_K4.1_C4.1_H4.1_A4.1_[A6C]_[T7C]_F4.1_[T8C]_T4.1]	709
UCUCUUUGUAUGCAUCUCUU (ssRNA) [Ic_S1_P3E.1_K3.1_C3.1_H3.1_A3.1_[A6G]_F3.1_[T7C]_T3.1]	1280
UCUCUUUGUAUCCAGUCUCUU (ssRNA) [Ic_S1_P4E.1_K4.1_C4.1_H4.1_A4.1_[A6C]_[T7C]_F4.1_[T8A]_[A9G]_T4.1]	2020
UCUCUUUGUAUCCACUCUCUU (ssRNA) [Ic_S1_P4E.1_K4.1_C4.1_H4.1_A4.1_[A6C]_[T7C]_F4.1_[T8A]_[A9C]_T4.1]	981
UCUCUUUGUAUCCAUUCUCUU (ssRNA) [Ic_S1_P4E.1_K4.1_C4.1_H4.1_A4.1_[A6C]_[T7C]_F4.1_[T8A]_[A9T]_T4.1]	362
UCUCUUUGUAUCCAAUCUCUU (ssRNA) [Ic_S1_P4E.1_K4.1_C4.1_H4.1_A4.1_[A6C]_[T7C]_F4.1_[T8A]_T4.1]	1050
UCUCUUUGUAUCCUGUCUCUU (ssRNA) [Ic_S1_P4E.1_K4.1_C4.1_H4.1_A4.1_[A6C]_[T7C]_F4.1_[A9G]_T4.1]	82.6
UCUCUUUGUAUCCUCUCUCUU (ssRNA) [Ic_S1_P4E.1_K4.1_C4.1_H4.1_A4.1_[A6C]_[T7C]_F4.1_[A9C]_T4.1]	67.2

Binder	Kd [nM]
UCUCUUUGUAUCCUUUCUCUU (ssRNA) [Ic_S1_P4E.1_K4.1_C4.1_H4.1_A4.1_[A6C]_[T7C]_F4.1_[A9T]_T4.1]	44.9
UCUCUUUGUAUCAGCUCUCUU (ssRNA) [Ic_S1_P4E.1_K4.1_C4.1_H4.1_A4.1_[A6C]_[T7A]_F4.1_[T8G]_[A9C]_T4.1]	606
UCUCUUUGUAUCAGUUCUCUU (ssRNA) [Ic_S1_P4E.1_K4.1_C4.1_H4.1_A4.1_[A6C]_[T7A]_F4.1_[T8G]_[A9T]_T4.1]	316
UCUCUUUGUAUCACCUCUCUU (ssRNA) [Ic_S1_P4E.1_K4.1_C4.1_H4.1_A4.1_[A6C]_[T7A]_F4.1_[T8C]_[A9C]_T4.1]	432
UCUCUUUGUAUUUAUCUCUU (ssRNA) [Ia_S1_P3E.1_K3.1_C3.1_H3.1_A3.1_[A6T]_F3.1_T3.1]	36.2
UCUCUUUGUAUUCAUCUCUU (ssRNA) [Ib_S1_P3E.1_K3.1_C3.1_H3.1_A3.1_[A6T]_F3.1_[T7C]_T3.1]	296
UCUCUUUGUAUCACAUCUCUU (ssRNA) [Ic_S1_P4E.1_K4.1_C4.1_H4.1_A4.1_[A6C]_[T7A]_F4.1_[T8C]_T4.1]	74.8
UCUCUUUGUAUCAACUCUCUU (ssRNA) [Ic_S1_P4E.1_K4.1_C4.1_H4.1_A4.1_[A6C]_[T7A]_F4.1_[T8A]_[A9C]_T4.1]	508
UCUCUUUGUAUCAAUUCUCUU (ssRNA) [Ic_S1_P4E.1_K4.1_C4.1_H4.1_A4.1_[A6C]_[T7A]_F4.1_[T8A]_[A9T]_T4.1]	91.5
UCUCUUUGUAUCAUGUCUCUU (ssRNA) [Ic_S1_P4E.1_K4.1_C4.1_H4.1_A4.1_[A6C]_[T7A]_F4.1_[A9G]_T4.1]	8.82
UCUCUUUGUAUCAUCUCUCUU (ssRNA) [Ic_S1_P4E.1_K4.1_C4.1_H4.1_A4.1_[A6C]_[T7A]_F4.1_[A9C]_T4.1]	17.6
UCUCUUUGUAUCAUUUCUCUU (ssRNA) [Ic_S1_P4E.1_K4.1_C4.1_H4.1_A4.1_[A6C]_[T7A]_F4.1_[A9T]_T4.1]	11.2
UCUCUUUGUAUCUGUUCUCUU (ssRNA) [Ic_S1_P4E.1_K4.1_C4.1_H4.1_A4.1_[A6C]_F4.1_[T8G]_[A9T]_T4.1]	58.6
UCUCUUUGUAUCUCGUCUCUU (ssRNA) [Ic_S1_P4E.1_K4.1_C4.1_H4.1_A4.1_[A6C]_F4.1_[T8C]_[A9G]_T4.1]	382
UCUCUUUGUAUCUCUUCUCUU (ssRNA) [Ic_S1_P4E.1_K4.1_C4.1_H4.1_A4.1_[A6C]_F4.1_[T8C]_[A9T]_T4.1]	522
UCUCUUUGUAUCUAGUCUCUU (ssRNA) [Ic_S1_P4E.1_K4.1_C4.1_H4.1_A4.1_[A6C]_F4.1_[T8A]_[A9G]_T4.1]	43.8
UCUCUUUGUAUCAAUCUCUU (ssRNA) [Ic_S1_P3E.1_K3.1_C3.1_H3.1_A3.1_[A6C]_F3.1_[T7A]_T3.1]	108
UCUCUUUGUAUCUACUCUCUU (ssRNA) [Ic_S1_P4E.1_K4.1_C4.1_H4.1_A4.1_[A6C]_F4.1_[T8A]_[A9C]_T4.1]	28.9
UCUCUUUGUAUUGGCUCUCUU (ssRNA) [Ic_S1_P4E.1_K4.1_C4.1_H4.1_A4.1_[A6T]_[T7G]_F4.1_[T8G]_[A9C]_T4.1]	1330
UCUCUUUGUAUUGGUUCUCUU (ssRNA) [Ic_S1_P4E.1_K4.1_C4.1_H4.1_A4.1_[A6T]_[T7G]_F4.1_[T8G]_[A9T]_T4.1]	500
UCUCUUUGUAUUGCGUCUCUU (ssRNA) [Ic_S1_P4E.1_K4.1_C4.1_H4.1_A4.1_[A6T]_[T7G]_F4.1_[T8C]_[A9G]_T4.1]	926
UCUCUUUGUAUUGCCUCUCUU (ssRNA) [Ic_S1_P4E.1_K4.1_C4.1_H4.1_A4.1_[A6T]_[T7G]_F4.1_[T8C]_[A9C]_T4.1]	943
UCUCUUUGUAUUGCUUCUCUU (ssRNA) [Ic_S1_P4E.1_K4.1_C4.1_H4.1_A4.1_[A6T]_[T7G]_F4.1_[T8C]_[A9T]_T4.1]	443
UCUCUUUGUAUUGCAUCUCUU (ssRNA) [Ic_S1_P4E.1_K4.1_C4.1_H4.1_A4.1_[A6T]_[T7G]_F4.1_[T8C]_T4.1]	365
UCUCUUUGUAUUGUGUCUCUU (ssRNA) [Ic_S1_P4E.1_K4.1_C4.1_H4.1_A4.1_[A6T]_[T7G]_F4.1_[A9G]_T4.1]	40.2
